Laboratory results published in publication doi:10.1101/2020.11.13.381350 (bioRxiv, 2020).

Target: the molecule itself
Assay: SEC

B1: EGFP-WT-mVP40 (natural protein)
chain: MASSSNYNTYMQYLNPPPYADHGANQLIPADQLSNQQGITPNYVGDLNLDDQFKGNVCHAFTLEAIIDISAYNERTVKGVPAWLPLGIMSNFEYPLAHTVAALLTGSYTITQFTHNGQKFVRVNRLGTGIPAHPLRMLREGNQAFIQNMVIPRNFSTNQFTYNLTNLVLSVQKLPDDAWRPSKDKLIGNTMHPAVSIHPNLPPIVLPTVKKQAYRQHKNPNNGPLLAISGILHQLRVEKVPEKTSLFRISLPADMFSVKEGMMKKRGENSPVVYFQAPENFPLNGFNNRQVVLAYANPTLSAV
  stoichiometry N: 6
